Reference: patent US20200179497A1
Like-named read-outs stand apart in the source and are kept apart here.

Tests used:
Test in all cases: cell-based or functional assay
IVIg (Octagam) [1] = molecular target: IVIg (Octagam)
IVIg (Octagam) [2] = molecular target: IVIg (Octagam); remark: listed apart in the source
adalimumab (Humira) = molecular target: adalimumab (Humira)
denosumab (XGEVA) = molecular target: denosumab (XGEVA)

| Substance | Conc. of enzyme, 2nd IgG heavy chain, scIgG to F(ab')2 (gel) (IVIg (Octagam) [1]) | enzyme concentration giving a dominating scIgG band on SDS-PAGE (IVIg (Octagam) [1]) | enzyme concentration giving mainly scIgG on SDS-PAGE (IVIg (Octagam) [1]) | Conc. of enzyme, 1st IgG heavy chain, IgG to scIgG (gel) (IVIg (Octagam) [2]) | Conc. of enzyme, 2nd IgG heavy chain, scIgG to F(ab')2 (gel) (IVIg (Octagam) [2]) | enzyme concentration giving equal cleavage on SDS-PAGE (adalimumab (Humira)) | enzyme concentration giving a dominating F(ab')2 band on SDS-PAGE (denosumab (XGEVA)) | enzyme concentration giving a single intense scIgG band on SDS-PAGE (denosumab (XGEVA); scale: pig/ml) |
| --- | --- | --- | --- | --- | --- | --- | --- | --- |
| BX1001865 (IdeS lacking tag, produced to GMP standard) (enzyme) | 6000 ng/mL | 1.9 ng/mL | 1.9 ng/mL | 1900 ng/mL | 7500 ng/mL |  |  |  |
| pCART124 (IdeS with additional N terminal methionine and histidine tag) (enzyme) | 6000 ng/mL | 1.9 ng/mL |  | 1900 ng/mL | 7500 ng/mL |  |  |  |
| pCART144 (IdeZ with additional N terminal methionine and histidine tag) (enzyme) |  |  |  |  |  | 4.6 ng/mL | 3.3 µg/mL | 0.12 |
